Data reported in article PMC12736101.

Assay: SEC; Superdex 200 10/300 GL, phosphate-buffered saline, 0.5 mL/min, ambient temperature, UV 280 nm; the SEC 'monomer' peak is the native covalent dimer

Chain of dulaglutide, original reference drug (Trulicity) (chain): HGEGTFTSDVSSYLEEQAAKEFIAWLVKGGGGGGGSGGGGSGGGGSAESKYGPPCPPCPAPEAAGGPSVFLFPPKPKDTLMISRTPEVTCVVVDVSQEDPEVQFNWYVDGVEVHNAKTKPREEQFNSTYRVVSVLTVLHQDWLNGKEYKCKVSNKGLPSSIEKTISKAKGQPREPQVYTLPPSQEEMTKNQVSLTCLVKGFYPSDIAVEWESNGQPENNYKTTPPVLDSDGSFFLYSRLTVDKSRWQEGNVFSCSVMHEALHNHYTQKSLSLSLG

In the case of “dulaglutide, original reference drug (Trulicity)”, the “percent in the SEC 'monomer' peak (the native covalent dimer)” value is reported as 97.5% monomeric form in the Trulicity sample.
